Laboratory results published in patent US20030148445A1 (NATIONAL JEWISH MEDICAL AND RESEARCH CENTER, published 2003).
Blank lines part the entries; values can stand above or below the binder they belong to.

Legend:
TRAF2 = biological target: T1, TRAF2 (UniProt Q12933 1-501, limits assumed); assay: co-immunoprecipitation from transfected 293 cell lysates with anti-Flag antibody, Western blot with anti-HA antibody
T1 sequence (looked up): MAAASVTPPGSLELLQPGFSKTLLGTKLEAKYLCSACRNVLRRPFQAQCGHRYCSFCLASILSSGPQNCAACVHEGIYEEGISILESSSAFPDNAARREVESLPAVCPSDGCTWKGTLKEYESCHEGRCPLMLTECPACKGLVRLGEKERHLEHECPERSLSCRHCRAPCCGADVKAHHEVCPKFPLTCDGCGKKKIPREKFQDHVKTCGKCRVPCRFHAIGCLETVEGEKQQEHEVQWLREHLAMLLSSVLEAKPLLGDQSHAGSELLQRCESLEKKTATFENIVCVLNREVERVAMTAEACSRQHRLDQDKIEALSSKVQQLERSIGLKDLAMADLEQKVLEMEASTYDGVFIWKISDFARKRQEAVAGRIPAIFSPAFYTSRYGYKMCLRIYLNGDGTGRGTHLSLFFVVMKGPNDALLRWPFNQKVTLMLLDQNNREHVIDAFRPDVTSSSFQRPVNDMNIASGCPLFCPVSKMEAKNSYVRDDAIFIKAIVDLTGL
Description: (§1) In the second portion of the experiment (See FIG. 10B), 293 cells were transfected with expression plasmids for HA-BCMA and the plasmids indicated in FIG. 10B. Transfected cell lysates were immunoprecipitated with anti-Flag antibody or control IgG. The immunoprecipitates were analyzed by Western blot with anti-HA antibody (FIG. 10B; upper panel).

RIP = biological target: T2, RIP (UniProt Q13546 1-671, limits assumed); assay: as above
T2 sequence (looked up): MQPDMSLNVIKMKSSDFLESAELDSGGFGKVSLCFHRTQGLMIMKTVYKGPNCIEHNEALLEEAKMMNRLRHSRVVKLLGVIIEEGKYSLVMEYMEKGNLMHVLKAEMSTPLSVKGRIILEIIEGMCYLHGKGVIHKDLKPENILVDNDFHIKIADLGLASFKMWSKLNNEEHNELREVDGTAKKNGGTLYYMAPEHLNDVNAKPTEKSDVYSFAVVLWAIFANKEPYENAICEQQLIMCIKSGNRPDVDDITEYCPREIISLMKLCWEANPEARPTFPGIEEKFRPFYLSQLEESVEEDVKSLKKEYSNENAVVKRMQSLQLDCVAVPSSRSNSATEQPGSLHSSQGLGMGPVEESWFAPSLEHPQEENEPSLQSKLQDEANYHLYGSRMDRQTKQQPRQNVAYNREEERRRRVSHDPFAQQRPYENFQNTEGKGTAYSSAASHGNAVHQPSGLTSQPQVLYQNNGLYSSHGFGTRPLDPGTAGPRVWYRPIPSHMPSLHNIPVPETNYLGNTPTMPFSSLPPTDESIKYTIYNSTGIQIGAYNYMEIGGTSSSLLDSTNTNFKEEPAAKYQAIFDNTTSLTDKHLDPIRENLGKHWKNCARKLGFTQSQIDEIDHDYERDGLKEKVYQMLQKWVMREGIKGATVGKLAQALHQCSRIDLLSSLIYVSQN
Description: as §1

TRADD = biological target: T3, TRADD (UniProt Q15628 1-312, limits assumed); assay: as above
T3 sequence (looked up): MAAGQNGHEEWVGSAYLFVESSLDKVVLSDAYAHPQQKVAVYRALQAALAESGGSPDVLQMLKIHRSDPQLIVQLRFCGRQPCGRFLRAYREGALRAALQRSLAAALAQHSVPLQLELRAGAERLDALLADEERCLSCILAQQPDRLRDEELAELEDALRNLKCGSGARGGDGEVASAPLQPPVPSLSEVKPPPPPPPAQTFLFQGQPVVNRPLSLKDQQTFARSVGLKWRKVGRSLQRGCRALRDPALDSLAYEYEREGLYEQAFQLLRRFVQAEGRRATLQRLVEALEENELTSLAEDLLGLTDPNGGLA
Description: as §1

[1] = biological target: T4, Flag-tagged soluble TRAIL (Flag-sTRAIL) (UniProt P50591 95-281, limits assumed); assay: co-immunoprecipitation with anti-HA antibody, Western blot with anti-Flag antibody
T4 construct: not shown: Flag tag
T4 sequence (P50591 95-281 limits assumed): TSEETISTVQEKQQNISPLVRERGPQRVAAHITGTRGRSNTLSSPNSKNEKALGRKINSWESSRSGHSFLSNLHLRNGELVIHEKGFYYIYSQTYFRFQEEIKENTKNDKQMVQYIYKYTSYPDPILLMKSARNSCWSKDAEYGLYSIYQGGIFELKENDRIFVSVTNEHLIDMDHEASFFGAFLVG
Description: (§2) 24 hours after transfection, cells were lysed in 1.0 ml lysis buffer (20 mM Tris [pH 7.5], 150 mM NaCl, 1% Triton, 1 mM EDTA, 10 μg/ml aprotinin, 10 μg/ml leupeptin, 1 mM PMSF). […] The mixtures were split into 2 aliquots and each aliquot was incubated with 0.5 μg anti-HA monoclonal antibody (BABCO, Berkeley, Calif.) (FIG. 6A; lanes 2,4,6,8) or control mouse IgG (FIG. 6A; lanes 1, 3, 5, 7), and 25 μl of a 1:1 slurry of GammaBind G Plus Sepharose at 4° C. for 3 hours. The sepharose beads were washed three times with 1 ml lysis buffer containing 500 mM NaCl. The precipitates were analyzed by Western blot with anti-Flag antibody (FIG. 6A; upper panel). […] All conditioned medium was supplemented with 10 mM Tris (pH 7.5), 100 mM NaCl, 1 mM EDTA, 10 μg/ml aprotinin, 10 μg/ml leupeptin, and 1 mM PMSF before TH immunoprecipitation experiments. Western blots were performed as described above.

[2] = biological target: T5, Flag-tagged sTALL-1 (Flag-sTALL-1) (human, UniProt Q9Y275 134-285); assay: as above
T5 construct: Secreted from 293 cells transfected with pSec-Flag-sTALL-1; used as conditioned medium or purified on an anti-Flag column; also called soluble TALL-1
Description: as §2

[3] = biological target: T5, Flag-tagged sTALL-1 (Flag-sTALL-1); assay: competition in flow cytometry on Bjab cells
Description: As described in Examples 2 and 3, cell staining was performed by sequential incubation (each 40 minutes) with anti-Flag monoclonal antibody (1 μg/ml) and RPE-conjugated goat anti-mouse IgG (1:200 dilution) in staining buffer (D-PBS containing 2% fetal bovine serum). Cells were washed two times with staining buffer following each incubation.

binding result (TRAF2): no binding | binding result (RIP): no binding | binding result (TRADD): no binding | binding result [2]: binds
B1: C-terminal HA epitope-tagged BCMA (BCMA-HA) (receptor, not shown: small tags and cut ends)
chain: MLQMAGQCSQNEYFDSLLHACIPCQLRCSSNTPPLTCQRYCNASVTNSVKGTNAILWTCLGLSLIISLAVFVLMFLLRKISSEPLKDEFKNTGSGLLGMANIDLEKSRTGDEIILPRGLEYTVEECTCEDCIKSKPKVDSDHCFPLPAMEEGATILVTTKTNDYCKSLPAALSATEIEKSISAR
notes: also called HA-BCMA; B Cell Maturation Protein
binding result [1]: no binding (tested: 0.1 µg recombinant Flag-sTRAIL)

binding result [3]: binds
B2: Flag-sBCMA-Fc secreted fusion protein (Fc fusion)
chain: MLQMAGQCSQNEYFDSLLHACIPCQLRCSSNTPPLTCQRYCNASVTNSVKGTNAILWTCLGL
notes: Used as 50-fold concentrated conditioned medium of transfected 293 cells; also called soluble BCMA; not shown: N-terminal Flag tag; Fc fragment of immunoglobulin G1 (IgG1), from the pCMV1-Flag-Fc plasmid
